B1: pNOVI V2K K91 (antibody, human IgG1, kappa)
light: DIQMTQSPSSLSASVGDRVTITCNVDQVIANWLNWYQQKPGKAPKLLIYAASSLQSGVPSRFSGSGSGTDFTLTISSLQPEDFATYYCQQMHPRAPKQFGQGTKVEIKRTVAAPSVFIFPPSDEQLKSGTASVVCLLNNFYPREAKVQWKVDNALQSGNSQESVTEQDSKDSTYSLSSTLTLSKADYEKHKVYACEVTHQGLSSPVTKSFNRGEC
heavy: not shown
notes: also called n46; construct No 46
B2: pNOVI V2K K91_IL-2 CM1_VHCH (antibody, human IgG1, kappa)
light: B1 light
heavy: not shown
notes: masked K91 fusion, uncleaved; also called n13; construct No 13
B3: pNOVI V2K K91_IL15_CM1_VHCH (antibody)
light: B1 light
heavy: not shown
notes: masked K91 fusion, uncleaved; 49% aggregates; also called n111; construct No 111

Key:
His-tagged human CD47 = target: T1, His-tagged human CD47 (human, UniProt Q08722 19-139, limits assumed); test: BLI, His-CD47 on HIS1K sensor, antibody 15 µg/mL
T1 construct: loaded on HIS1K biosensors at 2.5 µg/mL; also called target antigen; not shown: His tag
Experimental: The capacity of the masking domains to inhibit binding activity of the antibody was evaluated by Bio-Layer Interferometry (BLI). […] Binding experiments were performed to evaluate the masking efficiency and the binding recovery after cleavage of the masking domains. BLI was performed on an Octet RED96 system (Sartorius). His-tagged human CD47 was diluted at 2.5 μg/mL in Kinetic Buffer (KB) (Sartorius) and loaded on HIS1K biosensors (anti-His tag antibody biosensors, Sartorius) for 300 seconds. Loaded biosensors were dipped into antibodies diluted at 15 μg/mL in KB for 300 seconds to monitor association. Then, biosensors were transferred in KB for dissociation for 60 seconds. Binding profiles were then analyzed with ForteBio Data Analysis software.

[1] = target: T2, CD47 at the surface of Peak cells (human, UniProt Q08722 19-323); test: flow cytometry, Peak cells
T2 construct: whole, on cells; also called cell surface CD47
Experimental: Binding activity of antibody-cytokine/receptor fusions before and after cleavage was also evaluated by flow cytometry. Peak cells derived from HEK 293 which are human cells expressing CD47 were used to evaluate masking efficacy and binding recovery to CD47 by flow cytometry. Peak cells were diluted in cold FACS buffer (PBS, 2% BSA) to 1.2×10⁶ cells/mL. 3×10⁵ cells/well were added in a 96 well V-bottom plate. The plate was then centrifugated for 5 min at 1300 rpm, 4° C. Supernatants were removed and cells were washed twice using FACS buffer. A serial dilution of antibody-cytokine/receptor fusions previously digested with MMP-9 or not digested as described above was prepared in FACS buffer. An irrelevant antibody was included. Then, 150 μL of each diluted antibody were added in corresponding well and incubated for 30 min at 4° C. Cells were washed twice with FACS buffer and 100 μL of a mouse anti human Fc-PE conjugated secondary antibody were added and the plate was incubated for 20 min at 4° C. Cells were then washed twice with FACS buffer. Finally, 150 μL of SYTOX blue dead cell stain (ThermoFisher) diluted to 1/5000 in FACS buffer were added before detection by flow cytometry with Cytoflex (Beckman Coulter). Acquisition was performed with 10000 events for each well. Data were analyzed by FlowJo software.

Binder	Binding before cleavage (BLI) (His-tagged human CD47)	EC50 [1]
B1	1.8 nm	0.062 nM
B2	2.3 nm	
B3	1.5 nm	
